Residue numbers refer to the chain shown, from its start. Where “and” joins values, the source holds several entries; their conditions need not be identical. Equal entries are not always repeated.
B1: Nb99 (VHH)
VHH: QVQLVESGGGLVQTGGSLRLSCAASGSTRSIWYSGWYRQAPGKQRELVASLTSGGTTYYPDSMKGRFTISGSSGLNMVYLQMNSLRPEDTAVYSCNVRTGSGVYWGQGTQVTVSS
B2: Nb99 (VHH)
VHH: B1 VHH
B3: Nb92 (VHH)
VHH: HVQLVESGGGLVQAGGSLRLSCAASGRTFSAYGMGWFRQAPGKEREFVAGIARSGSEYYGDSVKGRFTISRDNAKNTVYLQMASLKAEDTGVYYCAADPTILYHALSQRTQNYRYWGPGTQVTVSS
B4: Nb97 (VHH)
VHH: HVQLVESGGGLVQAGGSLRLSCAAPGRTFSTSAMGWFRQAPGKEREFVAAIDWSNTNIHYADTVKGRFTISTDTAKNTVYLQMNNLKPEDTAVYYCAQGGWGLTQPISVDYWGKGTQVTVSS
B5: Nb16 (VHH)
VHH: DVQLVESGGGLVQAGESLRLSCAASGDMFSSNAMAWYRQAPGKQRELVASITSGGNTNYADSVKGRFTISRDNAKNTVYLQMDSLKPEDTAVYYCNGVAYDYSWGRPRNFWGQGTQVTVSS
B6: Nb9 (VHH)
VHH: HVQLVESGGGLVQTGGSLRLSCAFSGYTFSTFPTAWFRQAPGKEREFVAGIRWNGGSRDYTEYADFVKGRFTISRDNAKNMIYLQMISLKPEDTALYYCAASHGVVDGTSVNGYRYWGQGTQVTVSS
B7: Nb105 (VHH)
VHH: HVQLVESGGGLVQAGGSLRLSCAVSGRTFSTYGMAWFRQAPGKERDFVATITRSGETTLYADSVKGRFTISRDNAKNTVYLQMNSLKIEDTAVYYCAVRRDSSWGYSRDLFEYDYWGQGTQVTVSS
B8: Nb102 (VHH)
VHH: QVQLVESGGGLVQAGGSLRLSCAASGRTFSNSHMGWFRQAPGKEREFVAVISRSGGSTLYADSVKGRFTISRDNAKNTVYLQMNSLKPEDTAVYYCAASRTAGLTSNRSLYDYWGRGTQVTVSS
B9: Nb102 (VHH)
VHH: B8 VHH
B10: Nb93 (VHH)
VHH: EVQLVESGGGLVQPGGSLRLSCAASGFTFSSYAMSWVRQAPGKGREWVAGITPGSGTFYADSVKGRFTISRDNAKNTLSLEINSLKPEDTALYYCAKCRQEFSWDFSSRDPDDFDYWGQGTQVTVSS
B11: Nb6 (VHH)
VHH: HVQLVESGGGLVQAGGSLRLSCAASGRTFSTHATGWFRQAPGKEREFLATSVWLDDISRDSTYYAESVKGRFSISRDNAKDTVYLQMNSLKPEDTAVYYCAVKQRVGPGIMSAPTYDYWGQGTQVTVSS
B12: Nb83 (VHH)
VHH: HVQLVESGGGLVQPGGSLRLSCAASGRSFNSYLMGWFRQAPGKEREFVAWISGSPHDIIRYRDSVKDRFTISRDNAKNTVYLQMNSLKPVDTAVYYCAVGSLRVGSFSPDYWGQGTQVTVSS
B13: Nb107 (VHH)
VHH: HVQLVESGGGLVQAGGSLRLSCAASGRAIGIHRMAWFRQAPGKERAFVAAIQWTGDMPTYADSLKGRFTISADNAKNTVSLQMTSLKPDDTAVYYCAARSATTALYDYWGQGTQVTVSS
B14: Nb107 (VHH)
VHH: B13 VHH
B15: Nb64 (VHH)
VHH: QVQLVESGGGLVQAGGSLRLSCAVSGRTFSIAGMGWFRQAPGKDREFLGGITWNDGTTWYADSVKGRFTISRDNAKNMLSLRMNSLKPEDTAVYYCAAGPRLGSTPRAYDYWGQGTQVTVSS
B16: Nb64 (VHH)
VHH: B15 VHH
B17: Nb96 (VHH)
VHH: HVQLVESGGGLVQAGDSLRLSCAASGRDFSSYAMGWFRQAPGKEREFVGVISSGDVGTFYEDSVKGRFTISRDDAKNTVDLQMNSLKPEDTAVYYCAAALYVTSTRGSYAYWGQGTQVTVSS
B18: Nb90 (VHH)
VHH: HVQLVESGGGLVQAGGSLRLSCAVSGRTVSSYVMGWFRQAPGKEREFVAGIGRTGMTITADSVKGRFTISRDNAKNLVYLQMNSLKSEDTAVYWCAAGVRDFAPRIDSYDYWGQGTQVTVSS
B19: Nb28 (VHH)
VHH: HVQLVESGGGLVQAGGSLRLSCAASGRTFSTSTMDMGWFRQAPGKEREFVGADSWNDGRTYYADSVKGRFTISRDNAKNTLYLQMNNLKPEDTAVYYCAAETYSLYEKSDSWGYWGQGTQVTVSS
B20: Nb36 (VHH)
VHH: B19 VHH with R19T, S21T, T31S, S32E, G51A, R59S, N76S, N87S, L105I, S109D
B21: Nb28 (VHH)
VHH: B19 VHH
B22: Nb48 (VHH)
VHH: HVQLVESGGGLVQAGGSLRLSCAASGSIFRHYNMGWFRQAPGKEREFVSAISWTNIGTYYADSVKGRFSISRDNNRNTAYLEMNSLKPEDTAVYYCAADRSEFGSRLYSDENEYDYWGQGTQVTVSS
B23: Nb48 (VHH)
VHH: B22 VHH
B24: Nb95 (VHH)
VHH: QVQLVESGGGLVQAGGSLRLSCAASGRTFSSYSMGWFRQAQGKEREFVATINGNGRDTYYTNSVKGRFTISRDDATNTVYLQMNSLKPEDTAIYYCAADKDVYYGYTSFPNEYEYWGQGTQVTVSS
B25: Nb11 (VHH)
VHH: HVQLVESGGGLVQAGGSLRLSCAVSGASAERVGWFRRAPGKEREFVAAIGANGGSTNYLDSVKGRFTISRDNAKNTVYLQMNSLKPQDTAVYYCAARNLETFDYTYWGRGTQVTVSS
B26: Nb78 (VHH)
VHH: B25 VHH with H1Q, V24I, E30N, N52S, S55M, L99I, F102A, D103E, R109Q
B27: Nb20 (VHH)
VHH: QVQLVESGGGLVQAGGSLRLSCAVSGAGAHRVGWFRRAPGKEREFVAAIGASGGMTNYLDSVKGRFTISRDNAKNTIYLQMNSLKPQDTAVYYCAARDIETAEYIYWGQGTQVTVSS
B28: Nb66 (VHH)
VHH: HVQLVESGGGLVQAGGSLRLSCAASGRTFSVNSIAWFRQAPGKEREFVATINWSGGDIYYADSVKGRFTISRDNGKNTVYLQMNSLKPTDTAVYYCAAARFYGRSIAQDYDSWGQGTQVTVSS
B29: Nb82 (VHH)
VHH: DVQLVESGGGLVQAGGSLGLSCAASGSIFRLTAMGWYRQAPGKQRDLVTTITSAGIPHYADSVKGRFTISRDNAKNTVYLQMNGLKPEDTAVYYCYANTLNSQLLPRAYWGQGTQVTVSS
B30: Nb82 (VHH)
VHH: B29 VHH
B31: Nb94 (VHH)
VHH: QVQLVESGGGLVQAGGSLRLSCTASGGTFRSFTMAWFRQAPGKEREFVATLSWTGVGTYYADSVKGRFTISRDIAKNTVYLEMNSLIPEDTAVYYCAASPYTYSLLSRTGDYGYWGQGTQVTVSS

Tests used:
[1] = target: T1, SARS-CoV-2 (Wuhan-Hu-1 strain) spike glycoprotein on pseudotyped virus particles (SARS-CoV-2, UniProt P0DTC2 14-1273); assay: cell-based or functional assay
[2] = target: SARS-CoV-2 Munich strain spike glycoprotein on authentic virus (SARS-CoV-2); assay: cell-based or functional assay
[3] = target: SARS-CoV-2 spike receptor-binding domain (RBD) (SARS-CoV-2, UniProt P0DTC2 319-541); assay: indirect ELISA, RBD coated on plate, 4PL fit
[4] = target: SARS-CoV-2 spike glycoprotein (Wuhan-Hu-1 strain) on pseudotyped virus particles (SARS-CoV-2 (Wuhan-Hu-1 strain), UniProt P0DTC2 14-1273); assay: cell-based or functional assay
[5] = target: T1, SARS-CoV-2 (Wuhan-Hu-1 strain) spike …; assay: cell-based or functional assay; remark: listed apart in the source

| Binder | Pseudo-neut IC50 Luciferase [1] [nM] | ELISA affinity [3] [nM] | further results |
| --- | --- | --- | --- |
| B1 | 0.524 |  | Authentic virus PRNT IC50 [2]: 0.452 nM |
| B2 |  | 0.35 |  |
| B3 |  |  | Pseudo-neutralization (GFP) [1]: > 3 µM |
| B4 |  | 0.32 |  |
| B5 | 1.57 |  | Authentic virus PRNT IC50 [2]: 1.23 nM |
| B6 | 1.5 |  | Authentic virus PRNT IC50 [2]: 1.72 nM |
| B7 |  | 0.26 |  |
| B8 |  |  | Pseudo-neutralization (GFP) [1]: 0.5 µM and 3 µM |
| B9 |  | 28.4 |  |
| B10 | 14.5 |  |  |
| B11 |  |  | Pseudo-neutralization (GFP) [1]: > 3 µM |
| B12 |  | 1.51 |  |
| B13 | 0.569 |  | Authentic virus PRNT IC50 [2]: 0.181 nM |
| B14 |  | 0.76 |  |
| B15 | 4.13 |  | Authentic virus PRNT IC50 [2]: 4.88 nM |
| B16 |  | 0.45 |  |

| Binder | Pseudo-neut IC50 Luciferase [1] [nM] | ELISA affinity [3] [nM] | further results |
| --- | --- | --- | --- |
| B17 |  | 0.04 |  |
| B18 |  |  | Pseudo-neutralization (GFP) [1]: > 3 µM |
| B19 |  | 0.92 | Pseudo-neutralization IC50 (Luciferase) [4]: 6 nM |
| B20 |  | 1.04 | Pseudo-neutralization IC50 (Luciferase) [4]: 7 nM |
| B21 | 6.12 |  |  |
| B22 |  | 1.08 | Pseudo-neutralization (GFP) [4]: 500 nM |
| B23 |  |  | Pseudo-neutralization (GFP) [1]: 0.5 µM and 3 µM |
| B24 |  | 2.28 |  |
| B25 | 1.08 |  | Authentic virus PRNT IC50 [2]: 0.8 nM |
| B26 | 0.509 |  | Authentic virus PRNT IC50 [2]: 0.766 nM |
| B27 | 0.102 |  | IC50, pseudovirus assay [5]: 1.6 ng/mL; Pseudo-neutralization (GFP) [1]: < 0.0005 µM |
| B28 |  | 0.33 |  |
| B29 | 12.2 |  |  |
| B30 |  | 0.86 |  |
| B31 |  | 0.5 |  |

Reference: patent publication US20240043505A1 (UNIVERSITY OF PITTSBURGH OF THE COMMONWEALTH SYSTEM OF …, published 2024)
